Patent US20210130452A1 (Merck KGaA, published 2021)
Where two headings read alike, the source gives them in different places.

How the values were obtained:
[1] = molecular target: T1, human IL-17A (human, UniProt Q16552 24-155, biotinylated with Sulfo-NHS-LC-Biotin in the AlphaScreen assays only); assay: cell-based or functional assay
[2] = molecular target: T2, human IL-17A/F heterodimer (human, UniProt Q16552 24-155; Q96PD4 31-163, limits assumed, biotinylated with Sulfo-NHS-LC-Biotin in the AlphaScreen assays only); assay: cell-based or functional assay
[3] = molecular target: T1, human IL-17A; assay: AlphaScreen competition, hIL-17A - IL-17RA-Fc;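 further: receptor Fc-fusion plus Acceptor and streptavidin Donor beads incubated with the mixture for 1 h at room temperature before reading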
Experimental: (§1) To this mixture, the IL-17RA or IL-17RC Fc-fusions, Acceptor beads and the streptavidin Donor beads were added and further incubated for 1 hour at RT.

[4] = molecular target: T1, human IL-17A; assay: AlphaScreen competition, hIL-17A - IL-17RC-Fc;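 further: Read-out after 1 h at room temperature with the receptor Fc-fusion, Acceptor beads and streptavidin-coated Donor beads present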
Experimental: as §1

[5] = molecular target: T2, human IL-17A/F heterodimer; assay: AlphaScreen competition, hIL-17A/F - IL-17RA-Fc
Target sequence in this assay (Q16552 24-155 limits assumed, chain 1 of 2, one chain of several): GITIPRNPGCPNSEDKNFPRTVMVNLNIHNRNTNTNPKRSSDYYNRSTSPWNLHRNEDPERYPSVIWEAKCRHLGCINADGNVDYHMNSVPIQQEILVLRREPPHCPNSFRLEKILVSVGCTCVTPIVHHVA
Experimental: as §1

[6] = molecular target: T2, human IL-17A/F heterodimer; assay: AlphaScreen competition, hIL-17A/F - IL-17RC-Fc
Target sequence in this assay (Q16552 24-155 limits assumed, chain 1 of 2, one chain of several): as above
Experimental: as §1

[7] = molecular target: T1, human IL-17A; assay: SPR Biacore, hIL-17A on chip; periplasmic extract (*)
Experimental: (§2) Off-rates of the periplasmic extracts containing anti-IL-17 Nanobodies were measured by Surface Plasmon Resonance (SPR) using a Biacore T100 instrument. […] Periplasmic extracts containing IL-17 neutralizing Nanobodies were injected for 2 minutes at a flow rate of 45 μl/min to allow binding to chip-bound antigen. Next, binding buffer without periplasmic extracts was sent over the chip at the same flow rate to allow spontaneous dissociation of bound Nanobody. From the sensorgrams obtained for the different periplasmic extracts koff-values (k₄) were calculated.

[8] = molecular target: T2, human IL-17A/F heterodimer; assay: SPR Biacore, hIL-17A/F on chip; periplasmic extract (*)
Target sequence in this assay (Q16552 24-155 limits assumed, one chain of several): as the sequence (Q16552 24-155 limits assumed, chain 1 of 2, one chain of several) above
Experimental: as §2

[9] = molecular target: T3, human IL-17F (human, UniProt Q96PD4 31-163, biotinylated with Sulfo-NHS-LC-Biotin in the AlphaScreen assays only); assay: SPR Biacore, hIL-17F on chip; periplasmic extract (*); NB = no binding
T3 construct: also called hIL-17F; recombinant human IL-17F
T3 sequence: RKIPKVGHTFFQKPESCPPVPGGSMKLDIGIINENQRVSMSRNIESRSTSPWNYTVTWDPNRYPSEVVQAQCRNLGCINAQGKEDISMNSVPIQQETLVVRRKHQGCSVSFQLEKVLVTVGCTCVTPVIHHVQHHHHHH
Experimental: as §2

[10] = molecular target: T3, human IL-17F; assay: AlphaScreen competition, hIL-17F - IL-17RC-Fc
Experimental: as §1

[11] = molecular target: T4, human IL-17A (human, UniProt Q16552 24-155); assay: cell-based or functional assay
T4 sequence (Q16552 other isoform, or with tags, fused parts or gaps): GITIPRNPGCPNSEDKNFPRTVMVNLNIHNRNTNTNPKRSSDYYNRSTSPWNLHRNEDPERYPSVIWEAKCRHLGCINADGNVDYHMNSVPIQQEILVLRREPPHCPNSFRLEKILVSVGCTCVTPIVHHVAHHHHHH

[12] = molecular target: T5, human IL-17F (human, UniProt Q96PD4 31-163); assay: cell-based or functional assay
T5 sequence: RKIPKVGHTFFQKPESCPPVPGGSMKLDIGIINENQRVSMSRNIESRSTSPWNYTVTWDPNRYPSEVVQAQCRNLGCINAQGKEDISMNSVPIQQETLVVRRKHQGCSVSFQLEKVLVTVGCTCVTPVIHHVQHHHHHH

[13] = molecular target: T4, human IL-17A; assay: competition ELISA IL17A-RA
Experimental: (§3) To this end, IL-17RA, respectively IL-17RC was coated at a concentration of 1 μg/ml in PBS.

[14] = molecular target: T5, human IL-17F; assay: competition ELISA IL17F-RC
Experimental: as §3

[15] = molecular target: T6, human IL-17A (human, UniProt Q16552 24-155); assay: SPR (Biacore) off-rate
T6 construct: secreted form made in Hek293 cells (GenBank U32659); also called hIL-17A; hIL17A
T6 sequence (Q16552 other isoform, or with tags, fused parts or gaps): as the sequence (Q16552 other isoform, or with tags, fused parts or gaps) above

[16] = molecular target: T7, human IL-17A/F heterodimer (human, UniProt Q16552 24-155; Q96PD4 31-163, limits assumed); assay: SPR (Biacore) off-rate
T7 construct: bought, made in E. coli (R&D Systems 5194-IL/CF); also called hIL-17A/F; hIL17A/F
Target sequence in this assay (Q16552 24-155 limits assumed, one chain of several): as the sequence (Q16552 24-155 limits assumed, chain 1 of 2, one chain of several) above

[17] = molecular target: T8, Cynomolgus monkey IL-17A (Cynomolgus monkey, UniProt A0A2K5TTB0 24-155); assay: SPR (Biacore) off-rate
T8 construct: also called cyno IL-17A; cIL-17A
T8 sequence (A0A2K5TTB0 entry or part of it): as the sequence (Q16552 24-155 limits assumed, chain 1 of 2, one chain of several) above, with T3A, P8S, N34S, I77V, N78K, P104R counted along it

[18] = molecular target: T6, human IL-17A; assay: cell-based or functional assay; remark: listed apart in the source
[19] = molecular target: T7, human IL-17A/F heterodimer; assay: cell-based or functional assay
Target sequence in this assay (Q16552 24-155 limits assumed, one chain of several): as the sequence (Q16552 24-155 limits assumed, chain 1 of 2, one chain of several) above

[20] = molecular target: T6, human IL-17A; assay: AlphaScreen IL-17A-IL-17RA (average)
[21] = molecular target: T9, human IL-17F (human, UniProt Q96PD4 31-163); assay: method not given
T9 construct: also called hIL-17F; rhIL-17F
T9 sequence: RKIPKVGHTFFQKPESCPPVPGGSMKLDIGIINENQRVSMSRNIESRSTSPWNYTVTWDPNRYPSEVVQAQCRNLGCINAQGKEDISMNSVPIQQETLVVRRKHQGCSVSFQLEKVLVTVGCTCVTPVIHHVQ

[22] = molecular target: T10, human IL-17F (human, UniProt Q96PD4 31-163); assay: SPR (Biacore) off-rate
T10 construct: made in Hek293 cells (GenBank AF384857); also called hIL-17F; hIL17F
T10 sequence: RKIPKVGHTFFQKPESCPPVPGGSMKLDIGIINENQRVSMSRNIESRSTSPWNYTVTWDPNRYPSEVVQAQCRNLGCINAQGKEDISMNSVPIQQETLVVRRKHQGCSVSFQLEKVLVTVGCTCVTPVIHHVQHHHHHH

[23] = molecular target: T7, human IL-17A/F heterodimer; assay: SPR (Biacore) off-rate; remark: listed apart in the source
Target sequence in this assay (Q16552 24-155 limits assumed, chain 1 of 2, one chain of several): as the sequence (Q16552 24-155 limits assumed, chain 1 of 2, one chain of several) above

[24] = molecular target: T10, human IL-17F; assay: AlphaScreen IL-17F-IL-17RC; vs IL17MS16A04

T1 sequence (Q16552 other isoform, or with tags, fused parts or gaps): as the sequence (Q16552 other isoform, or with tags, fused parts or gaps) above

Row | IL-17A-induced IL-6 production in HT-1080 cells, Emax [1] | IL-17A-induced IL-6 production in HT-1080 cells, IC50 [1] | IL-17A/F-induced IL-6 production in HT-1080 cells, Emax [2] | IL-17A/F-induced IL-6 production in HT-1080 cells, IC50 [2] | IC50 [3] | IC50 [4] | IC50 [5] | IC50 [6] | koff [7] | koff [8] | koff [22] | koff [23] | IC50 fold difference vs WT [24] | other results | Binder
1 | 98.3% | 42.8 nM | 79.5% | 51.1 nM | 0.618 nM | 1.52 nM | 0.401 nM | 0.198 nM | 0.00097 s⁻¹ | 0.0013 s⁻¹ | – | – | – | binding result [9]: no binding | 01D06 (VHH, Class 2 Nanobody (anti-IL-17A and IL-17A/F); not shown: c-myc, His6 tag) VHH: EVQLVESGGGLVQAGGSLRLSCAADGRTFSTYGMTWFRQVPGKEREFVAHIPRSTYSPYYANSVKGRFTIARDDAKSTVYLQMNSLKPEDTAVYYCAVFTGGTYYVPTAYDYWGQGTQVTVSS
2 | 102% | 12.6 nM | 67.6% | 70.4 nM | 0.399 nM | 0.837 nM | 1.96 nM | 3.17 nM | 0.0013 s⁻¹ | 0.011 s⁻¹ | – | – | – | binding result [9]: no binding | 04A02 (VHH, Class 2 Nanobody (anti-IL-17A and IL-17A/F); not shown: c-myc, His6 tag) VHH: EVQLVESGGGLVQPGGSLRLSCAASRNINIINYMAWYRQAPGNQRELVAAMTSDATTEYADSVKGRFTISRDIPENTVYLQMNSLKPEDTAVYYCNAKGIWDYLGRRDFGDYWGQGTQVTVSS
3 | 93.5% | 8.5 nM | 55% | 124 nM | 0.211 nM | 1.12 nM | 9.02 nM | 8.65 nM | 0.00015 s⁻¹ | 0.0017 s⁻¹ | – | – | – | IC50 [10]: 69.4 nM | 09D10 (VHH, Class 2 Nanobody (anti-IL-17A and IL-17A/F); not shown: c-myc, His6 tag) VHH: EVQLVESGGGLVQAGGSLSLSCAASGSVFRIDVMRWHRQAPGKQREFLASIASGGTTNYADSVKGRFTISRDNAKNTVYLQMNSLKPEDTAVYYCGANAESGPYTYWGLGTQVTVSS
4 | – | – | – | – | – | – | – | – | – | – | – | – | – | IC50, hIL-17A induced IL-6, HT-1080, without HSA [11]: 0.31 nM; IC50, hIL-17F induced IL-6, HT-1080, without HSA [12]: 4.9 nM; IC50 [13]: 0.112 nM; IC50 [14]: 0.267 nM | SH-Fc-(GS)2-13E02 (Fc fusion, not shown: a dimerising Fc or GST; small tags and cut ends, also called MSB0010619; SH-(GS)2-Fc-13E02) EVQLVESGGGLVQAGGSLRLSCAASGRTYDAMGWLRQAPGKEREFVAAISGSGDDTYYADSVKGRFTISKDNAGITMYLQMNSLKPEDTAVYYCATRRGLYYVWDSNDYENWGQGTQVTVSS
5 | – | – | – | – | – | – | – | – | – | – | – | – | – | koff [15]: 0.000146 s⁻¹; koff [16]: 0.000195 s⁻¹; koff [17]: 0.000181 s⁻¹; IC50 cell based assay hIL-17A (IL-6, HT-1080 cells) [18]: 0.94 nM; IC50 cell based assay hIL-17A/F (IL-6, HT-1080 cells) [19]: 8.15 nM; IC50 [20]: 0.027 nM | IL17MS3061 (VHH, variant of IL17MS04G01; Kabat numbering) VHH: DVQLVESGGGLVQPGGSLRLSCAASGTIVNIHVMGWYRQAPGKQRELVALIFSGGSADYADSVKGRFTISRDNSKNTVYLQMNSLRPEDTAVYYCAAEIGYYSGGTYYSSEAHWGQGTLVTVSS
6 | – | – | – | – | – | – | – | – | – | – | – | – | – | fold lower affinity on IL-17F than on IL-17A [21]: ~10 fold | 13B03 Fc fusion (Fc fusion, also called 13B03 tested as Fc fusion; not shown: hinge and Fc) EVQLVESGGGSVQAGDSLRLSCAASGRANSINWFGWFRQTPGKEREFVAGIRWSDAYTEYANSVKGRFTISRDNAKNTVDLQMDSLKPEDTAVYYCVLDLSTVRYWGQGTQVTVSS
7 | – | – | – | – | – | – | – | – | – | – | – | – | – | fold lower affinity on IL-17F than on IL-17A [21]: ~10 fold | 13E02 Fc fusion (Fc fusion, also called 13E02 tested as Fc fusion; not shown: hinge and Fc) EVQLVESGGGLVQAGGSLRLSCAASGRTYDAMGWLRQAPGKEREFVAAISGSGDDTYYADSVKGRFTISKDNAGITMYLQMNSLKPEDTAVYYCATRRGLYYVWDSNDYENWGQGTQVTVSS
8 | – | – | – | – | – | – | – | – | – | – | 0.00148 s⁻¹ | 0.00878 s⁻¹ | 9.6 fold | – | IL17MS3040 (VHH) VHH: EVQLVESGGGLVQAGGSLRLSCAASGRTFSSYVVGWFRQAPGKEREFIGAISGSGGSIYYAVSEKDRFTISRDNGKNTLYLQMSSLKAEDTAVYYCTADQEFGYLRFGRSEYWGQGTQVTVSS
9 | – | – | – | – | – | – | – | – | – | – | 0.000606 s⁻¹ | 0.00427 s⁻¹ | 2.2 fold | – | IL17MS3041 (VHH) VHH: EVQLVESGGGLVQAGGSLRLSCAASGRTFSSYVVGWFRQAPGKEREFIGAISGSGESIYYAVSEKDRFTISRDNGKNTLYLQMSSLKAEDTAVYYCTADQEFGYLRFGRSEYWGQGTQVTVSS
10 | – | – | – | – | – | – | – | – | – | – | 0.00121 s⁻¹ | 0.005 s⁻¹ | 8.6 fold | – | IL17MS3042 (VHH) VHH: EVQLVESGGGLVQAGGSLRLSCAASGRTFSSYVVGWFRQAPGKEREFIGAISGSGDTIYYAVSEKDRFTISRDNGKNTLYLQMSSLKAEDTAVYYCTADQEFGYLRFGRSEYWGQGTQVTVSS
